Results: publication PMC2665237
Where two headings read alike, the source gives them in different places.

How the values were obtained:
LGP2 RD wt [1] = biological target: T1, LGP2 RD wt (human, UniProt Q96C10 537-678); assay: fluorescence anisotropy
T1 sequence: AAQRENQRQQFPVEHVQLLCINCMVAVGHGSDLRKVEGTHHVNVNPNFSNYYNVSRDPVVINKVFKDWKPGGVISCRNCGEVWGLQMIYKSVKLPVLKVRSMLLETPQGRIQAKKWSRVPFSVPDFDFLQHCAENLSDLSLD

LGP2 RD P606K = biological target: T2, LGP2 RD P606K (human, UniProt Q96C10 537-678, P606K); assay: fluorescence anisotropy
T2 sequence: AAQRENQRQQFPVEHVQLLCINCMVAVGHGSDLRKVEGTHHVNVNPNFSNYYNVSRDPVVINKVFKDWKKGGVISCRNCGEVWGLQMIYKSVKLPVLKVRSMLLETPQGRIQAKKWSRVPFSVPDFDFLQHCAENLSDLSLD

LGP2 RD H576Y = biological target: T3, LGP2 RD H576Y (human, UniProt Q96C10 537-678, H576Y); assay: fluorescence anisotropy
T3 sequence: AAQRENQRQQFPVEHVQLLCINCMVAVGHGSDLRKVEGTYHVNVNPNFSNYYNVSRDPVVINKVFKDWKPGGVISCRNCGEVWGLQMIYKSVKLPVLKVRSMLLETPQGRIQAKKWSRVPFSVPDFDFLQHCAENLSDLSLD

LGP2 RD W604A = biological target: T4, LGP2 RD W604A (human, UniProt Q96C10 537-678, W604A); assay: fluorescence anisotropy
T4 sequence: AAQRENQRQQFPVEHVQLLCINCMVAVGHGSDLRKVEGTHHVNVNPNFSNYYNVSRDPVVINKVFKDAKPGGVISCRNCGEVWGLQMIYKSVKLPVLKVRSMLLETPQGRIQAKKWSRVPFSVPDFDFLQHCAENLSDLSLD

LGP2 RD L621A = biological target: T5, LGP2 RD L621A (human, UniProt Q96C10 537-678, L621A); assay: fluorescence anisotropy
T5 sequence: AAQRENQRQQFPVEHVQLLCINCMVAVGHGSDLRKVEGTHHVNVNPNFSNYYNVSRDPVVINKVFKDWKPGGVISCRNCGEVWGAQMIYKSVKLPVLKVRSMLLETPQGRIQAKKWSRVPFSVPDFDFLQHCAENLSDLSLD

LGP2 RD K634E = biological target: T6, LGP2 RD K634E (human, UniProt Q96C10 537-678, K634E); assay: fluorescence anisotropy
T6 sequence: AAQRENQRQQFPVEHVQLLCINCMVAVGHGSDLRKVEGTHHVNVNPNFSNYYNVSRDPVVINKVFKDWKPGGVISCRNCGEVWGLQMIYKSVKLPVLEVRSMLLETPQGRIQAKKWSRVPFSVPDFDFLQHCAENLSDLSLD

LGP2 RD K626E = biological target: T7, LGP2 RD K626E (human, UniProt Q96C10 537-678, K626E); assay: fluorescence anisotropy
T7 sequence: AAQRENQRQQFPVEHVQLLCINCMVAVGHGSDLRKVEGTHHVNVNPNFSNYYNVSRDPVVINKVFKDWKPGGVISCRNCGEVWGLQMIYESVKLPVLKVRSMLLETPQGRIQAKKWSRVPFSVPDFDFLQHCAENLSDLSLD

LGP2 RD N583D = biological target: T8, LGP2 RD N583D (human, UniProt Q96C10 537-678, N583D); assay: fluorescence anisotropy
T8 sequence: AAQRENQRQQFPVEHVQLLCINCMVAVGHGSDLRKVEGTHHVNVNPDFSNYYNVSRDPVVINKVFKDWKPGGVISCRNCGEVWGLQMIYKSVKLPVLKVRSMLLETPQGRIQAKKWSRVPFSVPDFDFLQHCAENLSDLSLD

LGP2 RD K605E = biological target: T9, LGP2 RD K605E (human, UniProt Q96C10 537-678, K605E); assay: fluorescence anisotropy
T9 sequence: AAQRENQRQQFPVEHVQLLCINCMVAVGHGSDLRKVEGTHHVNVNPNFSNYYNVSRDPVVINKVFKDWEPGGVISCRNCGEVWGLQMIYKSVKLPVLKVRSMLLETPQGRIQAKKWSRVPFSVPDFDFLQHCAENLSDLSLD

LGP2 RD wt [2] = biological target: T1, LGP2 RD wt; assay: competition
LGP2 RD wt [3] = biological target: T1, LGP2 RD wt; assay: competition; remark: listed apart in the source

B1: 25 bp dsRNA (dsRNA)
RNA 1: GCUUGUCGGGAGCGCCACCCUCUGC
RNA 2: GCAGAGGGUGGCGCUCCCGACAAGC
- Kd (LGP2 RD wt [1]): 68 ± 6 nM
- Kd (LGP2 RD P606K): 230 ± 10 nM
- Kd (LGP2 RD H576Y): 304 ± 10 nM
- Kd (LGP2 RD W604A): 136 ± 6 nM
- Kd (LGP2 RD L621A): 165 ± 26 nM
- binding result (LGP2 RD K634E): no binding
- Kd (LGP2 RD K626E): 51 ± 5 nM
- Kd (LGP2 RD N583D): 38 ± 4 nM
- Kd (LGP2 RD K605E): 140 ± 16 nM

B2: 5'PPP dsRNA 19 bp (dsRNA)
RNA 1: GCAUGCGACCUCUGUUUGA
RNA 2: UCAAACAGAGGUCGCAUGC
modifications: 5'-triphosphate on sense strand
- binding result (LGP2 RD wt [2]): binds

B3: 5'OH dsRNA 19 bp (dsRNA)
RNA 1: GCAUGCGACCUCUGUUUGA
RNA 2: UCAAACAGAGGUCGCAUGC
- binding result (LGP2 RD wt [3]): binds
